# Experimental data from patent publication US20140243502.
# Tests used:
# [1] = molecular target: recombinant tick anticoagulant peptide (rTAP) (UniProt P17726)
# [2] = molecular target: non-targeted mut-scFv-TAP (UniProt P17726)
# [3] = system: scFv anti-LIBS-TAP fusion protein
substance,measurement,setting,value
factor Xa (fXa),"cleavage of chromogenic substrate (spectrozyme FXa #222) by factor Xa, OD at 405 nm",[1],"inhibition of factor Xa activity by rTAP, scFv anti-LIBS-TAP, and non-targeted mut-scFv-TAP, but not by scFv anti-LIBS"
same,"cleavage of chromogenic substrate (spectrozyme FXa #222) by factor Xa, OD at 405 nm",[2],"inhibition of factor Xa activity by rTAP, scFv anti-LIBS-TAP, and non-targeted mut-scFv-TAP, but not by scFv anti-LIBS"
same,"cleavage of chromogenic substrate (spectrozyme FXa #222) by factor Xa, OD at 405 nm",[3],"inhibition of factor Xa activity by rTAP, scFv anti-LIBS-TAP, and non-targeted mut-scFv-TAP, but not by scFv anti-LIBS"
